According to patent US20240132589A1 (ONCORESPONSE, published 2024):

Assays:
[1] = molecular target: T1, Recombinant human LILRB2 protein (ELISA antigen) (human, UniProt Q8N423 22-460); assay: ELISA, plate-coated recombinant human LILRB2
T1 construct: also called LILRB2-His; recombinant LILRB2
Description: (§1) To confirm binding to human and cynomolgus LILRB2, antibodies in supernatants were evaluated for binding by enzyme-linked immunosorbent assay (ELISA). Recombinant LILRB2 proteins (human: SEQ ID NO: 48; cynomolgus) were diluted in PBS to 2 μg/mL and added to 384-well high-binding ELISA plates (Greiner Bio-One Microlon™) at 25 μL/well and incubated at 4° C. overnight. The plates were washed three times with Wash Buffer (0.05% Tween® 20 in PBS), using a microplate washer and then blocked with 90 μL/well of ELISA Blocking Buffer A (1% BSA in PBS) for 1 hour at room temperature (RT). After blocking, 25 μL/well of LILRB2 antibodies or isotype control were added to the plates and incubated for 1 hour at RT. After primary antibody binding, plates were washed three times with Wash Buffer using a microplate washer. Secondary detection antibody (HRP-goat anti-rabbit Fab fragment) was diluted to 1:3000 in assay diluent (1% BSA in PBS) and 25 μL/well was added to plates and incubated at RT protected from light for 1 hour. Following incubation, plates were washed four times with Wash Buffer, using a microplate washer. After removal of the final wash, 25 μL/well of 1-Step™ Ultra TMB-ELISA Substrate Solution (Thermo Fisher, No. 34028) was added and plates were incubated for 5-10 min at RT, protected from light. After development, the reaction was stopped by addition of 25 μL/well of 0.3 M HCl, and plates were read using an EnVision (Perkin Elmer) microplate reader at 450 nm. EC₅₀ values were calculated based on log concentration of the primary antibodies at optical density at 450 nm.
(§2) Select humanized variant antibodies were purified and tested for their ability to bind human LILRB2 by ELISA, using the method described in Example 2, and binding to HEK293T cells expressing human LILRB2, using the method described in Example 4. Representative data are shown for IgG4 variants in Table 6.

[2] = molecular target: T2, Human LILRB2 on stably transduced HEK293T cells (human, UniProt Q8N423 22-597); assay: flow cytometry, HEK293T cells stably expressing human LILRB2
T2 construct: Lentiviral transduction (G&P Biosciences LTV2992); also called HEK293T-LILRB2; LILRB2-expressing HEK293T cells
Description: To confirm binding of LILRB2 antibodies, flow cytometry binding assays were performed using HEK293T cells stably expressing human LILRB2 (Example 3). […] The B2A-IgG1 and B2A-IgG4 chimeras bound the LILRB2-expressing HEK293T cells, with equivalent EC₅₀ values of 0.21 nM and 0.30 nM respectively.
as §2

LILRB2-Fc protein [3] = molecular target: T3, LILRB2-Fc protein (human, UniProt Q8N423 22-460, limits assumed); assay: blocking ELISA, LILRB2-Fc binding to coated monomer HLA-G; Exp I
T3 construct: also called human LILRB2-Fc; not shown: Fc part
Description: (§3) Tumor-associated HLA-G is an HLA Class I ligand for LILRB2. Binding of HLA-G to LILRB2 induces an immune suppressive signal in LILRB2 expressing myeloid cells. To determine if the anti-LILRB2 antibodies block the HLA-G-LILRB2 interaction and prevent the induction of an inhibitory signal, blocking ELISA assays in a dose titration were performed. 384-well plates were coated with monomer HLA-G (Fred Hutchinson Cancer Research Center, No. bHLA-G) at a concentration of 5 μg/mL, diluted in PBS, then plates were incubated at RT for 1 hour. Plates were rinsed with Wash Buffer three times, then blocked with Blocking Buffer A for 30 minutes at RT. During blocking incubation step, LILRB2-Fc protein and antibody titrations were prepared in Blocking Buffer A. LILRB2-Fc protein was then incubated with antibody titrations for 30 minutes at RT to allow for binding prior to addition onto plate. Plates were rinsed three times with Wash Buffer, then 25 μL of protein/antibody mixture was added per well and incubated for 1 hour at RT. Following antibody incubation, plates were washed three times with Wash Buffer. Anti-human IgG Fc-HRP secondary antibody was diluted and added at 25 μL/well. Plates were incubated in the dark for 1 hour at RT. Following secondary antibody incubation, plates were washed four times with Wash Buffer. 25 μL/well ultra-neat TMB was added per well for development and incubated for 5 minutes at RT. Reaction was stopped using 0.3 M HCl (25 μL/well). Absorbance was read at 450 nm using the Envision. The IC₅₀ for HLA-G blocking by clone B2A-IgG4 was 0.066 μg/mL.
(§4) Select humanized IgG4 variant antibodies were tested for their ability to block binding of human LILRB2-Fc to monomer HLA-G by ELISA, using the method described in Example 7.

[4] = molecular target: T1, Recombinant human LILRB2 protein (ELISA …); assay: ELISA, immobilized LILRB2-His; conditioned media of transient transfections
Description: as §1
Twenty-five IgG4 variants were expressed in mammalian cell culture as a combinatorial library of the five light and five heavy chains. In addition, B2A-IgG4 was included as a transfection control. The conditioned media from these transient transfections were assayed for human IgG concentration. A plate-based ELISA (see Example 2) was performed in which LILRB2-His was immobilized, and binding of humanized mAb variants was detected via an anti-human IgG4 HRP-labeled secondary antibody. The parental rabbit/human chimera clone transfection served as the benchmark EC₅₀ positive control.

LILRB2-Fc protein [5] = molecular target: T3, LILRB2-Fc protein; assay: blocking ELISA, LILRB2-Fc binding to coated monomer HLA-G; Exp II
Description: as §3, §4

T3 sequence (Q8N423 22-460 limits assumed): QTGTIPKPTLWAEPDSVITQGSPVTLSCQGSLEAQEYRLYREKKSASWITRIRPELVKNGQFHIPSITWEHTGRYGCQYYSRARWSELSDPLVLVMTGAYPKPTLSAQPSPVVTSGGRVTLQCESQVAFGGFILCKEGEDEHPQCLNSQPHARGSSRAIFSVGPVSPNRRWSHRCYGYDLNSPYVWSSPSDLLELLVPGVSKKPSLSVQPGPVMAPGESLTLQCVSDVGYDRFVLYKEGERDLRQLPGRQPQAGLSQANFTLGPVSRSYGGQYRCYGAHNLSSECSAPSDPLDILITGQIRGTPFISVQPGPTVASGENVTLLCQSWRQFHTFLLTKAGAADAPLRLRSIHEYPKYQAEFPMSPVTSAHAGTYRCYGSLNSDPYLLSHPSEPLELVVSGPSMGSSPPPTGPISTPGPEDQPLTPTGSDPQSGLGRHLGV
T2 sequence (Q8N423 other isoform, or with tags, fused parts or gaps limits assumed): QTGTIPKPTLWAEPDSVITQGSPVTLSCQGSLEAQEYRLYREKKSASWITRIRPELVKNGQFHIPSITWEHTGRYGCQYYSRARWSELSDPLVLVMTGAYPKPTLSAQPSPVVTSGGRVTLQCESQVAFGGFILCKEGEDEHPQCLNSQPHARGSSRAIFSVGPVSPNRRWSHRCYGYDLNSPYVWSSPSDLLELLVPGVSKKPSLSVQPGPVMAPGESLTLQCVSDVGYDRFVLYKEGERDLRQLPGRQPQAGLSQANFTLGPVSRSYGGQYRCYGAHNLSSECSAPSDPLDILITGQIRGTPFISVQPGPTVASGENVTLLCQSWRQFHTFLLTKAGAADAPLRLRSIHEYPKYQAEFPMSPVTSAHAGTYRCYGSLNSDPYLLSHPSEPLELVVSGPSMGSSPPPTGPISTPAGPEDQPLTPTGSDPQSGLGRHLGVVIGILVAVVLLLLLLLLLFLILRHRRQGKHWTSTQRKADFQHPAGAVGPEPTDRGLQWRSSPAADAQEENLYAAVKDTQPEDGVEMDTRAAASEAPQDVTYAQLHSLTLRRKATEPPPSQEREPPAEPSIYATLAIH
T1 sequence (Q8N423 other isoform, or with tags, fused parts or gaps limits assumed): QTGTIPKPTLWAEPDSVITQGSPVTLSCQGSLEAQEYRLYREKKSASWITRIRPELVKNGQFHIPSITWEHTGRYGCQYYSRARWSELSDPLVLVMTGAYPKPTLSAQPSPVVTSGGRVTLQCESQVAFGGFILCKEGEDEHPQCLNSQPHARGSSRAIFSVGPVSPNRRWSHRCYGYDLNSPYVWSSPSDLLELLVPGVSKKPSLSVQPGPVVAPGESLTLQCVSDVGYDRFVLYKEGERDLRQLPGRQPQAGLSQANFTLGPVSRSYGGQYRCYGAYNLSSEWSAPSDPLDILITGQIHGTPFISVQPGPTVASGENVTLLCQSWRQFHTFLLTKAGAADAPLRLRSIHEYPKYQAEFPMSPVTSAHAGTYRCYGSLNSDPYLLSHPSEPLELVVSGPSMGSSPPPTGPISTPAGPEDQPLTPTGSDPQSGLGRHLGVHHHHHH

Row | Binder | EC50 [1] [ng/mL] | BMAX [gMFI] [2] [gMFI] | EC50 [2] [ng/mL] | IC50 (LILRB2-Fc protein [3]) [ng/mL] | EC50 [4] [ng/mL] | IC50 (LILRB2-Fc protein [5]) [ng/mL]
1 | B2H4-54 (antibody, V domains shown, Humanized variant, human IgG4 / kappa) VH: EVQLLESGGGLVQPGTSLTLSCAASGFSLSTYAMSWVRQAPGKGLEWIGWIYNDGSTYYAAWAKGRFTISKDTSKTTLYLQITSLRAEDTATYFCAREGDYIGYFNIWGQGTLVTVSS VL: DIQMTQSPSSVSASVGDRVTITCQASQSIGSNLAWYQQKPGKAPKLLIYAAATLASGVPLRFSGSGSGTDFTLTISNLQPEDSATYYCQSYVSGSSDVAFGGGTKVEIK | 2 | 10400 | 0.17 | 4040 | 2.25 | 4090
2 | B2H4-55 (antibody, V domains shown, Humanized variant, human IgG4 / kappa) VH: EVQLLESGGGLVQPGTSLTLSCAASGFSLSTYAMSWVRQAPGKGLEWIGWIYNDGSTYYAAWAKGRFTISKDTSKTTLYLQITSLRAEDTATYFCAREGDYIGYFNIWGQGTLVTVSS VL: DVVMTQTPSSVSAALGGTVTIKCQASQSIGSNLAWYQLKPGQRPKLLIYAAATLASGGSSRFKGSGSGTDFTLTISSLEPADAATYYCQSYVSGSSDVAFGGGTEVVVK | 2.82 | 10800 | 0.33 | 6890 | – | 7170
3 | B2H4-41 (antibody, V domains shown, Humanized variant, human IgG4 / kappa) VH: EVQLLESGGRLVQPGTSLRLSCAVSGFSLSTYAMSWVRQAPGKGLEWIGWIYNDGSTYYAAWAKGRFTISKDTSKTTLYLQMNSLTVEDTATYFCAREGDYIGYFNIWGQGTLVTVSS VL: DIQMTQSPSSLSASVGDRVTITCQASQSIGSNLAWYQLKPGQRPKLLIYAAATLASGVPSRFKGSGSGTDFTLTISSLQSEDAATYYCQSYVSGSSDVAFGGGTEVVVK | 3.05 | 10100 | 0.28 | 5780 | 3.76 | 6760
4 | B2H4-52 (antibody, V domains shown, Humanized variant, human IgG4 / kappa) VH: EVQLLESGGGLVQPGTSLTLSCAASGFSLSTYAMSWVRQAPGKGLEWIGWIYNDGSTYYAAWAKGRFTISKDTSKTTLYLQITSLRAEDTATYFCAREGDYIGYFNIWGQGTLVTVSS VL: DVVMTQSPSSVSASLGDRVTITCQASQSIGSNLAWYQQKPGQAPKLLIYAAATLASGVPSRFKGSGSGTDFTLTITSLQPADFATYYCQSYVSGSSDVAFGGGTKVEIK | – | – | – | – | 5.37 | –
5 | B2H4-11 (antibody, V domains shown, Humanized variant, human IgG4 / kappa) VH: QVQLEESGGRVVQPGRSLRLSCAASGFSLSTYAMSWVRQAPGKGLEWIGWIYNDGSTYYAAWAKGRFTISKDTSKTTVFLQMNSLKPDDTATYFCAREGDYIGYFNIWGQGTLVTVSS VL: DIQMTQSPSSLSASVGDRVTITCQASQSIGSNLAWYQLKPGQRPKLLIYAAATLASGVPSRFKGSGSGTDFTLTISSLQSEDAATYYCQSYVSGSSDVAFGGGTEVVVK | 3.98 | 9840 | 0.32 | 7310 | 4.2 | 7990
6 | B2H4-51 (antibody, V domains shown, Humanized variant, human IgG4 / kappa) VH: EVQLLESGGGLVQPGTSLTLSCAASGFSLSTYAMSWVRQAPGKGLEWIGWIYNDGSTYYAAWAKGRFTISKDTSKTTLYLQITSLRAEDTATYFCAREGDYIGYFNIWGQGTLVTVSS VL: DIQMTQSPSSLSASVGDRVTITCQASQSIGSNLAWYQLKPGQRPKLLIYAAATLASGVPSRFKGSGSGTDFTLTISSLQSEDAATYYCQSYVSGSSDVAFGGGTEVVVK | 3.27 | 10700 | 0.37 | 8110 | 3.85 | 9050

Next, values leading:

Row | EC50 [1] [ng/mL] | BMAX [gMFI] [2] [gMFI] | EC50 [2] [ng/mL] | IC50 (LILRB2-Fc protein [3]) [ng/mL] | EC50 [4] [ng/mL] | IC50 (LILRB2-Fc protein [5]) [ng/mL] | Binder
7 | – | – | – | – | 4.96 | – | B2H4-43 (antibody, V domains shown, Humanized variant, human IgG4 / kappa) VH: EVQLLESGGRLVQPGTSLRLSCAVSGFSLSTYAMSWVRQAPGKGLEWIGWIYNDGSTYYAAWAKGRFTISKDTSKTTLYLQMNSLTVEDTATYFCAREGDYIGYFNIWGQGTLVTVSS VL: DIEMTQSPSSVSASVGDRVTLTCQASQSIGSNLAWYQQKPGQAPKLLIYAAATLASGVPSRFKGSGSGTDFTLTISSLQPEDFATYYCQSYVSGSSDVAFGGGTEVVVK
8 | 2.81 | 10500 | 0.35 | 7010 | 3.23 | 7500 | B2H4-24 (antibody, V domains shown, Humanized variant, human IgG4 / kappa) VH: EVQLVESGGDLATPGGSLRLSCAVSGFSLSTYAMSWVRQAPGKGLEWVGWIYNDGSTYYAAWAKGRFTISKDTSKTTVYLQMTSLRAEDTALYFCAREGDYIGYFNIWGQGTLVTVSS VL: DIQMTQSPSSVSASVGDRVTITCQASQSIGSNLAWYQQKPGKAPKLLIYAAATLASGVPLRFSGSGSGTDFTLTISNLQPEDSATYYCQSYVSGSSDVAFGGGTKVEIK
9 | 2.3 | 10500 | 0.31 | 6520 | 3.61 | 7120 | B2H4-45 (antibody, V domains shown, Humanized variant, human IgG4 / kappa) VH: EVQLLESGGRLVQPGTSLRLSCAVSGFSLSTYAMSWVRQAPGKGLEWIGWIYNDGSTYYAAWAKGRFTISKDTSKTTLYLQMNSLTVEDTATYFCAREGDYIGYFNIWGQGTLVTVSS VL: DVVMTQTPSSVSAALGGTVTIKCQASQSIGSNLAWYQLKPGQRPKLLIYAAATLASGGSSRFKGSGSGTDFTLTISSLEPADAATYYCQSYVSGSSDVAFGGGTEVVVK
10 | 2.88 | 10200 | 0.35 | 7640 | 4.56 | 8290 | B2H4-25 (antibody, V domains shown, Humanized variant, human IgG4 / kappa) VH: EVQLVESGGDLATPGGSLRLSCAVSGFSLSTYAMSWVRQAPGKGLEWVGWIYNDGSTYYAAWAKGRFTISKDTSKTTVYLQMTSLRAEDTALYFCAREGDYIGYFNIWGQGTLVTVSS VL: DVVMTQTPSSVSAALGGTVTIKCQASQSIGSNLAWYQLKPGQRPKLLIYAAATLASGGSSRFKGSGSGTDFTLTISSLEPADAATYYCQSYVSGSSDVAFGGGTEVVVK
11 | 2.84 | 10900 | 0.31 | 7040 | 4.6 | 7290 | B2H4-44 (antibody, V domains shown, Humanized variant, human IgG4 / kappa) VH: EVQLLESGGRLVQPGTSLRLSCAVSGFSLSTYAMSWVRQAPGKGLEWIGWIYNDGSTYYAAWAKGRFTISKDTSKTTLYLQMNSLTVEDTATYFCAREGDYIGYFNIWGQGTLVTVSS VL: DIQMTQSPSSVSASVGDRVTITCQASQSIGSNLAWYQQKPGKAPKLLIYAAATLASGVPLRFSGSGSGTDFTLTISNLQPEDSATYYCQSYVSGSSDVAFGGGTKVEIK
